Assay results: the supplement of paper PMC7877785
± gives the uncertainty stated by the source.

Assay: self-splicing fitness, log relative to wild type (ln ratio); higher = more splicing; Tetrahymena group I intron in knt gene, E. coli kanamycin selection, DiMSum; sequences stand for … in CUCUCU…GGAGGGAAAAGUUAUCAGGCAUGCACCUGGUAGCUAGUCUUUAAACCAAUAGAUUGCAUCGGUUUAAAAGGCAAGACCGUCAAAUUGCGGGAAAGGGGUCAACAGCCGUUCAGUACCAAGUCUCAGGGGAAACUUUGAGAUGGCCUUGCAAAGGGUAUGGUAAUAAGCUGACGGACAUGGUCCUAACCACGCAGCCAAGUCCUAAGUCAACAGAUCUUCUGUUGAUAUGGAUGCAGUUCACAGACUAAAUGUCGGUCGGGGAAGAUGUAUUCUUCUCAUAAGAUAUAGUCGGACCUCUCCUUAAUGGGAGCUAGCGGAUGAAGUGAUGCAACACUGGAGCCGCUGGGAACUAAUUUGUAUGCGAAAGUAUAUUGAUUAGUUUUGGAGUACUCGUGGUCG
Procedure, shortened: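 DiMSum derived fitness as the error-weighted combination of fold changes across replicates, kanamycin versus no kanamycin, normalised to wild type. E. coli BL21(DE3) held the library, which randomised all eight P1ex-region intron nucleotides within the knt kanamycin-resistance gene on pET-22b(+). Six replicate transformations grew overnight at 37°C or 30°C on LB agar with or without 25 μg/mL kanamycin, also containing 100 μg/mL carbenicillin, 50 μM IPTG and 0.2% rhamnose, and pooled colonies were amplicon-sequenced on an Illumina HiSeq 2500.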

| Sequence | self-splicing fitness (ln) (30 °C) | self-splicing fitness (ln) (37 °C) |
| --- | --- | --- |
| UCCGAGCAAUAUUACGCAUC | -3.11 ± 0.41 |  |
| UCCGAGCAAUAUUACGCCAC | -2.05 ± 0.4 |  |
| UCCGAGCAAUAUUACGCCGU | -2.21 ± 0.22 |  |
| UCCGAGCAAUAUUACGCGCA | -0.129 ± 0.15 | -0.252 ± 0.14 |
| UCCGAGCAAUAUUACGCGGC | -3.97 ± 0.35 | -2.46 ± 0.29 |
| UCCGAGCAAUAUUACGCUCG | -3.71 ± 0.21 | -3.08 ± 0.37 |
| UCCGAGCAAUAUUACGCUGU | -3.1 ± 0.19 | -0.655 ± 0.16 |
| UCCGAGCAAUAUUACGGCAC | -2.01 ± 0.18 | -2.76 ± 0.24 |
| UCCGAGCAAUAUUACGGGUU | -3.41 ± 0.14 | -1.9 ± 0.15 |
| UCCGAGCAAUAUUACGGUGC | -3.26 ± 0.19 | -2.62 ± 0.22 |
| UCCGAGCAAUAUUACGUAAA | -2.8 ± 0.28 |  |
| UCCGAGCAAUAUUACGUAAC |  | -0.912 ± 0.35 |
| UCCGAGCAAUAUUACGUGAA | -3.29 ± 0.17 | -1.16 ± 0.15 |
| UCCGAGCAAUAUUACGUGAC | -4.99 ± 0.41 | -2.66 ± 0.29 |
| UCCGAGCAAUAUUACGUGUU | -2.75 ± 0.16 | -2.36 ± 0.15 |
| UCCGAGCAAUAUUACGUUAC | -3.25 ± 0.43 | -1.63 ± 0.43 |
| UCCGAGCAAUAUUACGUUCU | -3.44 ± 0.29 | -2.62 ± 0.26 |
| UCCGAGCAAUAUUACGUUUG | -3.31 ± 0.2 | -3.36 ± 0.25 |
| UCCUAGCAAUAUUACGAAAG | -2.86 ± 0.33 |  |
| UCCUAGCAAUAUUACGAAAU | -3.19 ± 0.47 | -0.807 ± 0.42 |
| UCCUAGCAAUAUUACGAAUA | -2.81 ± 0.26 | -1.98 ± 0.34 |
| UCCUAGCAAUAUUACGACGU | -0.558 ± 0.098 | -0.499 ± 0.11 |
| UCCUAGCAAUAUUACGAGCA | -1.64 ± 0.42 | -1.11 ± 0.23 |
| UCCUAGCAAUAUUACGAUCU |  | -1.69 ± 0.37 |
| UCCUAGCAAUAUUACGCAUU | -3.92 ± 0.21 | -1.81 ± 0.11 |
| UCCUAGCAAUAUUACGCCUC | -2.62 ± 0.27 | -2.29 ± 0.39 |

| Sequence | self-splicing fitness (ln) (30 °C) | self-splicing fitness (ln) (37 °C) |
| --- | --- | --- |
| UCCUAGCAAUAUUACGCUGC |  | -2.02 ± 0.29 |
| UCCUAGCAAUAUUACGGAAU | -3.08 ± 0.15 | -2.1 ± 0.21 |
| UCCUAGCAAUAUUACGGAGA | -0.637 ± 0.072 | -0.626 ± 0.079 |
| UCCUAGCAAUAUUACGGUUC | -3.05 ± 0.2 | -1.55 ± 0.17 |
| UCCUAGCAAUAUUACGGUUG | -4.08 ± 0.22 | -1.81 ± 0.14 |
| UCCUAGCAAUAUUACGUCUA |  | -2.69 ± 0.38 |
| UCCUAGCAAUAUUACGUCUC | -3.82 ± 0.23 | -2.52 ± 0.21 |
| UCCUAGCAAUAUUACGUGGA | -2.37 ± 0.16 | -2.74 ± 0.23 |
| UCCUAGCAAUAUUACGUGGC | -3.85 ± 0.24 | -1.78 ± 0.2 |
| UCCUAGCAAUAUUACGUGGU | -2.53 ± 0.1 | -1.38 ± 0.096 |
| UCCUAGCAAUAUUACGUUGA | -0.805 ± 0.071 | 0.0396 ± 0.089 |
| UCGAAGCAAUAUUACGAAAA | -3.1 ± 0.3 | -1.54 ± 0.21 |
| UCGAAGCAAUAUUACGAAGG | -1.84 ± 0.21 | -2.47 ± 0.33 |
| UCGAAGCAAUAUUACGAAUU | -3.1 ± 0.37 | -2.21 ± 0.38 |
| UCGAAGCAAUAUUACGACGG | -1.8 ± 0.17 | -0.892 ± 0.18 |
| UCGAAGCAAUAUUACGAGUC | -3.45 ± 0.42 |  |
| UCGAAGCAAUAUUACGAUGA | -0.316 ± 0.068 | 0.368 ± 0.074 |
| UCGAAGCAAUAUUACGCACA | -1.23 ± 0.13 | -0.472 ± 0.16 |
| UCGAAGCAAUAUUACGCAUC | -1.47 ± 0.29 | -2.36 ± 0.3 |
| UCGAAGCAAUAUUACGCCGU | -0.599 ± 0.12 | -0.739 ± 0.12 |
| UCGAAGCAAUAUUACGCCUU | -3.4 ± 0.25 | -3.23 ± 0.26 |
| UCGAAGCAAUAUUACGCGUU | -3.93 ± 0.21 | -1.47 ± 0.18 |
| UCGAAGCAAUAUUACGCUAG | -2.16 ± 0.14 | -0.234 ± 0.14 |
| UCGAAGCAAUAUUACGCUGG | -1.85 ± 0.13 | -2.04 ± 0.16 |
| UCGAAGCAAUAUUACGGAAU | -3.57 ± 0.24 | -1.91 ± 0.23 |
| UCGAAGCAAUAUUACGGGCG | 0.0324 ± 0.093 | -0.219 ± 0.1 |

| Sequence | self-splicing fitness (ln) (30 °C) | self-splicing fitness (ln) (37 °C) |
| --- | --- | --- |
| UCGAAGCAAUAUUACGUAUA | -3.1 ± 0.22 | -1.58 ± 0.18 |
| UCGAAGCAAUAUUACGUCGU | -2.65 ± 0.2 | -1.34 ± 0.15 |
| UCGAAGCAAUAUUACGUGAA | -2.53 ± 0.13 | -1.13 ± 0.12 |
| UCGAAGCAAUAUUACGUGAU | -2.71 ± 0.16 | -1.37 ± 0.17 |
| UCGCAGCAAUAUUACGAAAA | -3.16 ± 0.43 | -2.2 ± 0.46 |
| UCGCAGCAAUAUUACGAGAU | -3.01 ± 0.25 | -1.86 ± 0.25 |
| UCGCAGCAAUAUUACGAGCG | -1.97 ± 0.12 | -0.806 ± 0.13 |
| UCGCAGCAAUAUUACGAGGC | -3.12 ± 0.24 | -3.16 ± 0.26 |
| UCGCAGCAAUAUUACGAGGG | -2.72 ± 0.11 | -1.65 ± 0.13 |
| UCGCAGCAAUAUUACGAUAA | -1.91 ± 0.14 | -0.243 ± 0.14 |
| UCGCAGCAAUAUUACGCAGU | -3.58 ± 0.2 | -2.35 ± 0.2 |
| UCGCAGCAAUAUUACGCCUA | -1.21 ± 0.13 | 0.0885 ± 0.14 |
| UCGCAGCAAUAUUACGCCUU | -1.44 ± 0.12 | -0.631 ± 0.15 |
| UCGCAGCAAUAUUACGCGAA | -1.65 ± 0.23 | -2.45 ± 0.25 |
| UCGCAGCAAUAUUACGCGCA | -0.382 ± 0.091 | -0.601 ± 0.078 |
| UCGCAGCAAUAUUACGGACG | -1.44 ± 0.15 | -0.806 ± 0.13 |
| UCGCAGCAAUAUUACGGAGG | -3.71 ± 0.18 | -2.05 ± 0.15 |
| UCGCAGCAAUAUUACGGGAA | -2.44 ± 0.15 | -1.49 ± 0.13 |
| UCGCAGCAAUAUUACGGUCA | -0.966 ± 0.1 | 0.119 ± 0.11 |
| UCGCAGCAAUAUUACGUAAC | -3.25 ± 0.29 | -1.73 ± 0.23 |
| UCGCAGCAAUAUUACGUACG | -1.12 ± 0.12 | -0.686 ± 0.13 |
| UCGCAGCAAUAUUACGUAUA | -1.82 ± 0.11 | -0.691 ± 0.12 |
| UCGCAGCAAUAUUACGUGAA | -1.32 ± 0.078 | -0.713 ± 0.086 |
| UCGCAGCAAUAUUACGUGUG | -2.24 ± 0.074 | -2.33 ± 0.12 |
| UCGCAGCAAUAUUACGUUAA | -2.18 ± 0.12 | -1 ± 0.096 |
| UCGCAGCAAUAUUACGUUGG | -2.56 ± 0.11 | -2.12 ± 0.12 |

| Sequence | self-splicing fitness (ln) (30 °C) | self-splicing fitness (ln) (37 °C) |
| --- | --- | --- |
| UCGGAGCAAUAUUACGAACA | -2.3 ± 0.21 | -1.25 ± 0.21 |
| UCGGAGCAAUAUUACGACAU | -3.91 ± 0.041 | -2.98 ± 0.052 |
| UCGGAGCAAUAUUACGACCG | -2.42 ± 0.45 |  |
| UCGGAGCAAUAUUACGAGGG | -3.58 ± 0.21 | -2.94 ± 0.44 |
| UCGGAGCAAUAUUACGCACU | -3.53 ± 0.25 | -2.23 ± 0.23 |
| UCGGAGCAAUAUUACGCCUG | -0.894 ± 0.26 |  |
| UCGGAGCAAUAUUACGCGCG | -2.02 ± 0.18 | -0.752 ± 0.2 |
| UCGGAGCAAUAUUACGCUUA | -2.33 ± 0.33 | -1.89 ± 0.41 |
| UCGGAGCAAUAUUACGGCGC | -2.09 ± 0.31 |  |
| UCGGAGCAAUAUUACGGGAG |  | -2.24 ± 0.44 |
| UCGGAGCAAUAUUACGGUAU | -3.24 ± 0.35 | -2.16 ± 0.26 |
| UCGGAGCAAUAUUACGUAAU |  | -1.86 ± 0.33 |
| UCGGAGCAAUAUUACGUCAU |  | -2.37 ± 0.25 |
| UCGGAGCAAUAUUACGUCGU | -1.37 ± 0.25 | -1.73 ± 0.3 |
| UCGGAGCAAUAUUACGUGCA | -0.902 ± 0.17 | -1.03 ± 0.25 |
| UCGGAGCAAUAUUACGUUGG | -2.09 ± 0.17 | -1.77 ± 0.23 |
| UCGUAGCAAUAUUACGACCA | -1.35 ± 0.3 |  |
| UCGUAGCAAUAUUACGAUGG | -1.88 ± 0.12 | -1.07 ± 0.14 |
| UCGUAGCAAUAUUACGCAUG | -2.33 ± 0.18 | -0.84 ± 0.16 |
| UCGUAGCAAUAUUACGCCAU |  | -0.949 ± 0.45 |
| UCGUAGCAAUAUUACGCCGU | -1.52 ± 0.14 | -0.646 ± 0.16 |
| UCGUAGCAAUAUUACGGCAG | -2.75 ± 0.13 | -2.07 ± 0.15 |
| UCGUAGCAAUAUUACGGCGA | -1.85 ± 0.37 | -0.98 ± 0.2 |
